How the values were obtained:
[1] = biological target: T1, Hfq;Crc (Pseudomonas aeruginosa PAO1;Pseudomonas …, UniProt Q9HUM0;Q51380 1-82;1-259, |); test: co-IP (anti-Hfq); RNA-dependent Crc capture; ES buffer: 10 mM Tris pH 8.0, 10 mM KCl, 40 mM NaCl, 1 mM MgCl2; MST + 0.05% Tween-20, room temperature; EMSA + 25 ng tRNA per 10 ul, 37 C 15 min (Fig 6D); NMR; details: protein: recombinant;recombinant; tags: none stated;His6-tag (N-terminal) removed with HRV14-3C; chain copies: 6;1
[2] = biological target: Hfq (Pseudomonas aeruginosa PAO1, UniProt Q9HUM0 1-82); test: MST; 30 nM labelled Hfq6, no Crc; ES buffer: 10 mM Tris pH 8.0, 10 mM KCl, 40 mM NaCl, 1 mM MgCl2; MST + 0.05% Tween-20, room temperature; EMSA + 25 ng tRNA per 10 ul, 37 C 15 min (Fig 6D); NMR; details: protein: recombinant; tags: none stated; chain copies: 6; label: 5'-32P (EMSA); unlabelled (MST)
[3] = biological target: T1, Hfq;Crc; test: MST; 30 nM labelled Hfq6, RNA titrated, 360 nM Crc; ES buffer: 10 mM Tris pH 8.0, 10 mM KCl, 40 mM NaCl, 1 mM MgCl2; MST + 0.05% Tween-20, room temperature; EMSA + 25 ng tRNA per 10 ul, 37 C 15 min (Fig 6D); NMR; details: protein: recombinant;recombinant; tags: none stated;His6-tag (N-terminal) removed with HRV14-3C; chain copies: 6;1; label: 5'-32P (EMSA); unlabelled (MST)

Binder | binding result [1] | Kd [2] [nM] | Kd [3] [nM]
AAAAAAAAAAAAAAAAAAAAAAAAAAA (ssRNA) [poly(A)27] | binds | – | –
AAAAAUAACAACAAGAGG (ssRNA) [amiE6ARN] | – | 43.2 ± 2.3 | 33.9 ± 1.7
